This note sets out measurements from the DeepSol protein solubility set.

The nature of the data set: soluble on expression in E. coli; label from the status in PepcDB or PDB records.
In the case of “ALKPTIYKFRIALSDMNNDYYDSKNLTIALHPSEKPQRMLARILAFCLNAQKDLEFTKGLSTTEEPDLWHVADDQSITHWIEIGEPEPDRIKKASRLAKQVKVYTYNTKAPVWWEKMSGKFSMLPVSVESFDYDAIDMICQHLDRGTNLSVMITGTSIFVDVNDQHVEVTVKELQS”, the “soluble on expression in E. coli” value is given as “soluble”.

Turning to “QGVDQSPKPLIIGPEEDYDPGYFNNESDIIFQDLEKLKSRPAHLGVFLRYIFSQADPSPLLFYLCAEVYQQASPKDSRSLGKDIWNIFLEKNAPLRVKIPEMLQAEIDSRLRNSEDARGVLCEAQEAAMPEIQEQIHDYRTKRTLGLGSLYGENDLLDLDGDPLRERQVAEKQLAALGDILSAYAADRSAPMDFALNTYMSHAGIRLREA”, the “soluble on expression in E. coli” value is reported as “soluble”.

For the sequence “MKKLLLPLVLAGVLLATLLVSQSSSSPSLRVAYVDVEKATESYYKWQDLNEKYKRDYSFYQNKLKEMEDELKKMQEEGRSQEEIQAKQKEILSKKAEYENLLKTEYQQKIQEVMKEVVSKIQEYASVMGYDLVIAKQMVLYGKPSYDITDQVIAYINQK”, the “soluble on expression in E. coli” value is on record as “not soluble”.

As to “MGSDKIHHHHHHMTDKLSPRGRPLYLGSRGRHTRFSRIADSVADSFNLSKELTTATLLAAVNSALRGKASITINQDWDEPVNAFFLVCAESGGGKSPSNNFFKQPQLNFQTEWNEQNKNLYLRASVDKKYFAQKLKKHTQQAAELDYGNPKALEQYHAETTRLTEAYEKALRCQPLELFVDDVTNKSLIEAMSRQDGRIAIMEPEVSAFRHIVRAKEVSPILDTILKSFSGERIQLNRAGEPALTIERPILALNIMVQPPIMMQLAKNKAIQGRGILGRFFVTIVEKPRYSRFRHDPIEVPPEVRFEYQDTIYKILTTVEKSKDLLSFSLSDEATEAWLAVKDDVESSIPHNPPPGYGEWKAKAGKHLLHLACLVHIFEHQASNTIIDKRSFELAELLFNFFDKNMWSMLRFMYPEIDFLVAVKALSSGKLYNMGEFSARDMQRALGTYNSTQIAQGIDWLLDNRAIDPIEHRHIENSAKTTMHVGRKKSPTYKIIDAEWHYLRDELL”, the “soluble on expression in E. coli” value is recorded as “not soluble”.

As to “MGSDKIHHHHHHMRIIILSSSTNRSGGTRQAFYQARELATRGHHVSLCLPEDSQMHGMGYDDLIVTLPADRKRWKASIEALFAADGPTVVHAFHNRAVKFVAWHGMFWRHRGVVCCAHRGVMYRPGNPLPYISPGMDAFIANSQACARVLRLFTPAGKLFVVYNGVDDARVTPRTPADTAREQVGLPPRGAEAAWSSSSPAPLVFGFVGQNSPVKGADILIDAFARADVGEARLLMVGVSHDMWRPRCEALGIADRVHLVPHTESVSDMLQLMDAFVLPSRTESLPNTMLEAIRMGLPVIGSAVGGVPELVRGNGLLFPAGDIDALAAALGRMASDHATREAWAAASHAEGERYTIHARVDALEDIYAQLLRRRGLHTA”, the “soluble on expression in E. coli” value is on record as “not soluble”.

Turning to “MSSEACTDPYLRCAFNGAALTALGISHSALLAHSPQGCEYLVNNAFASQECDYMETMTLCTKLCVDEIVHGGEDILARTIREVKDLPISALFVLSACGPEIVGDDIVGVCEALQPEVKFRLVPIESAGFRGSQYDGIDIAMDTILKKLVKDDVEKIPGSVCLEHHHHHH”, the “soluble on expression in E. coli” value was “not soluble”.

As for “VGVKPVGSDPDFQPELSGAGSRLAVVKFTMRGCGPCLRIAPAFSSMSNKYPQAVFLEVDVHQCQGTAATNNISATPTFQFFRNKVRIDQYQGADAVGLEEKIKQHLE”, the “soluble on expression in E. coli” value was “soluble”.

On to “AHHHHHHGSYRIKDEWGEFLVRLARRAIEEYLRTGREIEPPKDIPPELWEKMGVFVTLNRHNVPPQAALRGCIGFPLPIYPLVKATIKAAIYAAVDDPRFPPVKLEEMNNIVVEVSVLTPPELIEGPPEERPKKIKVGRDGLIVEKGIYTGLLLPQVAVEWGWDEEEFLAETCWKAGLPPDCWLDEDTKVYKFTAEIFEEEYPRGPVKRKPLIPQSQD”, for which the “soluble on expression in E. coli” value is reported as “soluble”.

Regarding “SDNLSSEEIQQRAHQITDESLESTRRILGLAIESQDAGIKTITMLDEQKEQLNRIEEGLDQINKDMRETEKTLTELNKCCGLCVCPCNRTKNFESGKAYKTTWGDGGENSPCNVVSKQPGPVTNGQLQQPTTGAASGGYIKRITNDAREDEMEENLTQVGSILGNLKDMALNIGNEIDAQNPQIKRITDKADTNRDRIDIANARAKKLIDS”, the “soluble on expression in E. coli” value is reported as “soluble”.

Take “MSEKKSELVGRHKRVAYMNTDATGSSPKFERMTNFTTMTNGKNPKEYSRQYVDEIAERADVVGYAPAIEYSFDRYTNNPVHEKIATIHDGEKLGDDAHVEVVVVDFFKKSDKGDKCYATKRTYAVIPDSDGDGTDALVYSGSLKSVSDIEEGYVTETDFTSKTVTYAKGDYAATELEHHHHHH”: the “soluble on expression in E. coli” value was “soluble”.

“MTTQIELGDITVDVVLKDIKNIHLSVYPPNGRVKISAPLRMDIDTIRVFAISRLGWIKQQRKKFQEQERETPREYLDLESHYVWGKRYLLKVIEVNEAPSVELKHSKMILRVRPGTDDKKRQSIIDAWYREQLKKAIPPLIARWEPLLGVKVERFFVQRMRTKWGSCNHKARNIRLNTELAKKPEECLEYTIVHEMAHILEPTHNSHFITLMDQFMPKWQFCRDRLNQLPVRHEDWIYLEHHHHHH”: the “soluble on expression in E. coli” value is “soluble”.

For “MGSDKIHHHHHHMKIKCIITDDEPIARKGLRGYIEKVDFLTLTGECEDAVQLNTILKTQEIDLLFLDIEMPEMTGIELLSNLTNPPKVIIVSAYEQYALKGYEFNVVDYLLKPVSFDRFIKSVNKIYDLLQTEQKEKNDYIFVKSNKLLKKILFKDILYIESMENYVVIQTVSCKEVVYTTLKQLNDSLPKDVFQQTHRSYIVNLEKVTAIDGNQLTLSSYKIPVARTFRDSIFNLILNNRLIIKS”, the “soluble on expression in E. coli” value is listed as “not soluble”.

On to “MGSDKIHHHHHHNSALEWLQRAASAAKEQNYSGIYVYHHGDEVEVLRVLHRNDGRREQEKTEVMDGTQRHFLRVNSDVYCHLADGKQVRLERNASRRFFPAFLPARAAGLAELYEVKLGGVERVAGRPCQVVMLEPRDGYRHAFQLWLDSRTGLPLKSRIVNSDGEVVSMFVFSEVQIGRPPDASLFRNELAGKQVQQVSLGQRIDLPWSVTPPPGFERVQEAVRTLPGRNTPVTHLVFSDGLSVLSMFIEPADPGVPSLQGLSAEGAIGVYARALDGHTITTVGEVPNLALIETGNSVRRK”, for which the “soluble on expression in E. coli” value is given as “not soluble”.

Consider “VIRIGTRGSLLATTQAATVRDALIAGGHSAELVTISTEGDRSMAPIASLGVGVFTTALREAMEAGLVDAAVHSYKDLPTAADPRFTVAAIPPRNDPRDAVVARDGLTLGELPVGSLVGTSSPRRAAQLRALGLGLEIRPLRGNLDTRLNKVSSGDLDAIVVARAGLARLGRLDDVTETLEPVQMLPAPAQGALAVECRAGDSRLVAVLAELDDADTRAAVTAERALLADLEAGCSAPVGAIAEVVESIDEDGRVFEELSLRGCVAALDGSDVIRASGIGSCGRARELGLSVAAELFELGARELMWGVRH”, for which the “soluble on expression in E. coli” value is “not soluble”.

Regarding “MSPIEKSSKLENVCYDIRGPVLKEAKRLEEEGNKVLKLNIGNPAPFGFDAPDEILVDVIRNLPTAQGYCDSKGLYSARKAIMQHYQARGMRDVTVEDIYIGNGVSELIVQAMQALLNSGDEMLVPAPDYPLWTAAVSLSSGKAVHYLCDESSDWFPDLDDIRAKITPRTRGIVIINPNNPTGAVYSKELLMEIVEIARQHNLIIFADEIYDKILYDDAEHHSIAPLAPDLLTITFNGLSKTYRVAGFRQGWMVLNGPKKHAKGYIEGLEMLASMRLCANVPAQHAIQTALGGYQSISEFITPGGRLYEQRNRAWELINDIPGVSCVKPRGALYMFPKIDAKRFNIHDDQKMVLDFLLQEKVLLVQGTAFNWPWPDHFRIVTLPRVDDIELSLSKFARFLSGYHQL”, the “soluble on expression in E. coli” value is given as “soluble”.

As to “MGSSHHHHHHGKTIFVIVPTNEEQVAFLEALAKQDELNFDWQNPPTEPGQPVVILIPSDMVEWFLEMLKAKGIPFTVYVEEGGSENLYFQGGGGGGRTGFNTAYSRCTYLVMMGEYKQLLEPGTFPSNDRLPPHLRLDKLSYLDLRDTEIALPPVIDVSLSNRDQVRQLEGQLPSTERSDLHVHFGPIKSQTIIMTPSSNERYVRRRLGLSEKDRKNLEAESQQAFAQARS”, the “soluble on expression in E. coli” value is reported as “soluble”.
